Reference: publication doi:10.1101/2022.05.11.491581 (bioRxiv, 2022)
Blank lines part the entries; values can stand above or below the molecule they belong to.

How the values were obtained:
[1] = target: LARGE1 without its CC domain (-CC), soluble secreted form (human) (UniProt O95461); assay: crystal structure
[2] = target: LARGE1 without its CC domain (-CC), soluble secreted form (human) (UniProt O95461); assay: cryo-EM structure
[3] = target: LARGE1 without its CC domain (-CC), soluble secreted form (human) (UniProt O95461); assay: mass photometry
mass photometry = target: the molecule itself; assay: mass photometry

stoichiometry N [1]: 2
stoichiometry N [2]: 2
stoichiometry N [3]: 2
Molecule: LARGE1 without its CC domain (-CC), soluble secreted form (from UniProt O95461 96-276) (domain or fragment)

B1: LARGE1 with its coiled-coil (+CC) domain (residues 29-756), soluble secreted form (domain or fragment, human, UniProt O95461 29-756, looked up)
chain: LFSGSFEDGKPVSLSPLESQAHSPRYTASSQRERESLEVRMREVEEENRALRRQLSLAQGRAPSHRRGNHSKTYSMEEGTGDSENLRAGIVAGNSSECGQQPVVEKCETIHVAIVCAGYNASRDVVTLVKSVLFHRRNPLHFHLIADSIAEQILATLFQTWMVPAVRVDFYNADELKSEVSWIPNKHYSGIYGLMKLVLTKTLPANLERVIVLDTDITFATDIAELWAVFHKFKGQQVLGLVENQSDWYLGNLWKNHRPWPALGRGYNTGVILLLLDKLRKMKWEQMWRLTAERELMGMLSTSLADQDIFNAVIKQNPFLVYQLPCFWNVQLSDHTRSEQCYRDVSDLKVIHWNSPKKLRVKNKHVEFFRNLYLTFLEYDGNLLRRELFGCPSEADVNSENLQKQLSELDEDDLCYEFRRERFTVHRTHLYFLHYEYEPAADSTDVTLVAQLSMDRLQMLEAICKHWEGPISLALYLSDAEAQQFLRYAQGSEVLMSRHNVGYHIVYKEGQFYPVNLLRNVAMKHISTPYMFLSDIDFLPMYGLYEYLRKSVIQLDLANTKKAMIVPAFETLRYRLSFPKSKAELLSMLDMGTLFTFRYHVWTKGHAPTNFAKWRTATTPYRVEWEADFEPYVVVRRDCPEYDRRFVGFGWNKVAHIMELDVQEYEFIVLPNAYMIHMPHAPSFDITKFRSNKQYRICLKTLKEEFQQDMSRRYGFAALKYLTAENNS
stoichiometry N (mass photometry): 2
